In experiment [1] the target is T1, tau peptide NVKSKIGSTENLKHQPG (SEQ ID NO:184) (human).
T1 construct: Printed on a microarray together with all its single substitution variants; also called probe peptide
T1 peptide: NVKSKIGSTENLKHQPG
Nature of the experiment: peptide microarray, 3D6 at 10 ug/ml. The method, then: The assay exchanged each of the amino acids in the peptide sequence with all 20 amino acids, to determine with a high degree of accuracy the core epitope for 3D6. The microarray was printed with all peptides in triplicate, along with HA control peptides to ensure assay performance. To perform the assay, the array was incubated with 3D6 (10 ug/ml) in blocking buffer, washed with PBS-T, followed by incubation with a goat anti-mouse secondary antibody conjugated to DyLight-680. In addition, the microarray was incubated with anti-HA antibody 12CA5 directly conjugated to DyLight-800. Microarrays were scanned using a LiCor scanner, and intensities of triplicates were averaged.

The target of experiment [2] is T2, biotinylated tau peptide, amino acid residues 199-213 of SEQ ID NO:3 (human, also: biotinylated, site not given here).
T2 construct: One of the overlapping peptides spanning 4R0N human tau
T2 peptide: KSKIGSTENLKHQPG
Nature of the experiment: peptide ELISA, epitope mapping of hybridoma positives. How it is done: (§1) Additional peptides were used to model potential post-translational modifications of the C- and N-terminal ends of the protein.
(§2) Biotinylated peptides were bound to separate wells of a streptavidin-coated ELISA plate. The plate was blocked and treated with murine 3D6, followed by incubation with a horseradish peroxidase-conjugated anti-mouse antibody. After thorough washing, OPD was applied to the plate and allowed to develop. The plate was read at 450 nm absorbance. Background subtraction was performed with absorbance values from wells containing no primary antibody, and a threshold for positive binding was set to 0.2 absorbance units. […] (FIG. 1)
On the technique in general: ELISA stands for enzyme-linked immunosorbent assay.

For experiment [3], the target named is T3, biotinylated tau peptide, amino acid residues 262-276 of SEQ ID NO:3 (human, also: biotinylated, site not given here).
T3 construct: One of the overlapping peptides spanning 4R0N human tau
T3 peptide: SKCGSLGNIHHKPGG
The description is as above. How it is done: as §1, §2

The target of experiment [4] is biotinylated recombinant tau (UniProt P10636-6 1-383, limits assumed, biotinylated). Nature of the experiment: competition ELISA: inhibition of biotinylated tau binding to plate-bound low molecular weight heparin. The method, then:
To test the ability of murine and humanized 3D6 variants to interrupt tau interaction with heparin, ELISA plates coated with low molecular weight heparin were first blocked with 2% BSA in PBS for 2h at room temperature. Plates were washed with TBST. After blocking, plates were incubated with biotinylated recombinant tau along with indicated concentrations of unlabeled antibody in 1% BSA/PBS for one hour at room temperature. Plates were again washed, and then incubated with streptavidin-HRP in 0.1% BSA/PBS for 45 min. Plates were then washed and developed with OPD, and absorbance was measured at 490 nm. Inhibition curves were analyzed using a 4-parameter log fit.

The target in experiment [5] is T4, 1-15* (free N-term) (also: biotinylated (site not given here)).
T4 construct: also called tau peptide 1-15 (4R0N numbering), free N-terminus
T4 peptide: H-MAEPRQEFEVMEDHA
The experiment is described as follows: peptide ELISA, biotinylated peptide on streptavidin plate; background-subtracted absorbance; positive from 0.2. The method, then: as §1, §2

Experiment [6] addresses T5, 100-114 (also: biotinylated (site not given here)).
T5 construct: also called tau peptide 100-114 (4R0N numbering)
T5 peptide: APPGQKGQANATRIP
Described as above. The method, then: as §1, §2

For experiment [7], the target named is T6, 109-123 (also: biotinylated, site not given here).
T6 construct: also called tau peptide 109-123 (4R0N numbering)
T6 peptide: NATRIPAKTPPAPKT
Described as above. The method, then: as §1, §2

Experiment [8] deals with T7, 136-150 (also: biotinylated, site not given here).
T7 construct: also called tau peptide 136-150 (4R0N numbering)
T7 peptide: RSGYSSPGSPGTPGS
The experiment is described as above. The method, then:
as §1, §2

For experiment [9], the target named is T8, 1-15* (acetylated) (also: biotinylated (site not given here)).
T8 construct: also called tau peptide 1-15 (4R0N numbering), acetylated
T8 peptide: Ac-MAEPRQEFEVMEDHA
The description is as above. How it is done:
as §1, §2

In experiment [10] the target is T9, 289-303 (also: biotinylated, site not given here).
T9 construct: also called tau peptide 289-303 (4R0N numbering)
T9 peptide: KDRVQSKIGSLDNIT
The description is as above. The method, then: as §1, §2

The target in experiment [11] is T10, 369-383 (free C-term) (also: biotinylated, site not given here).
T10 peptide: TLADEVSASLAKQGL-OH
The description is as above. The method, then: as §1, §2

For experiment [12], the target named is T11, 37-51 (also: biotinylated, site not given here).
T11 construct: also called tau peptide 37-51 (4R0N numbering)
T11 peptide: GDTDAGLKAEEAGIG
Described as above. The method, then:
as §1, §2

Experiment [13] deals with T12, 46-60 (also: biotinylated, site not given here).
T12 construct: also called tau peptide 46-60 (4R0N numbering)
T12 peptide: EEAGIGDTPSLEDEA
The experiment is described as above. How it is done:
as §1, §2

Experiment [14] has as its target T13, 64-78 (also: biotinylated, site not given here).
T13 construct: also called tau peptide 64-78 (4R0N numbering)
T13 peptide: VTQARMVSKSKDGTG
The experiment is described as above. How it is done: as §1, §2

Experiment [15] deals with T14, recombinant human tau (human, UniProt P10636-6 1-383, limits assumed).
T14 construct: also called human recombinant tau without polyhistidine tag; native, untagged protein
T14 sequence (P10636 other isoform, or with tags, fused parts or gaps limits assumed): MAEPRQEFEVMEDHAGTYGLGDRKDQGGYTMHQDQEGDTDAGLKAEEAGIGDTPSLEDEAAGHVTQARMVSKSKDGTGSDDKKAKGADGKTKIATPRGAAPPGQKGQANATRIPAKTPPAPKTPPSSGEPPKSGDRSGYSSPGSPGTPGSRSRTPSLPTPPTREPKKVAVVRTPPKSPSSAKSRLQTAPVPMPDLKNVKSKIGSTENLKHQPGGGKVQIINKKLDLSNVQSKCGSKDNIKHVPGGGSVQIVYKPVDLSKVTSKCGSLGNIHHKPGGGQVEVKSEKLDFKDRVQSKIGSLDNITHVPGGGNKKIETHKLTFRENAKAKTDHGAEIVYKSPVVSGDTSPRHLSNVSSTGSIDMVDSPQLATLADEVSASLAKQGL
The experiment is described as follows: SPR (Biacore T200): antibody captured on an anti-mouse chip, recombinant human tau 10-0.14 nM as analyte, global 1:1 fit. How it is done: Methods: SPR analysis was performed using a Biacore T200 to determine the binding kinetics of murine antibodies to recombinant human tau. To prepare a sensor surface, anti-mouse antibody (GE Life Sciences) was immobilized on sensor chip CM5 via amine coupling, and antibody was captured at a level to ensure maximum binding of 50 RU. Various concentrations of recombinant tau ranging from 10-0.14 nM were passed over the captured ligand at a flow rate of 50 μL/min in running buffer (HBS+0.05% P-20, 1 mg/mL BSA), for 180 sec association and 900 sec dissociation. Data were double-referenced to both an irrelevant sensor not containing antibody ligand, and 0 nM analyte concentration to account for the dissociation of ligand from the capture moiety. Data was then analyzed using a global 1:1 fit.

One may read the IC50 as the concentration needed to halve the response being measured. As a reminder, the Kd is the constant that tells how readily two partners part at equilibrium. Broadly, the koff is the first-order rate constant of dissociation. Broadly, the kon is a measure of how fast the partners come together.

Where no end group is shown, it is not given here.

biotinylated recombinant tau, sequence (P10636 other isoform, or with tags, fused parts or gaps limits assumed): as above

B1: murine 3D6 monoclonal antibody (antibody, IgG1, V domains shown)
VH: EVQLQQSGADLVRPGALVKLSCKASGFNIKDYYLHWVRQRPEQGLEWIGWIDPENGDTVYDPKFQGKATITADTSSNTAYLQLGSLTSEDTAVYFCSTLDFWGQGTTLTVSS
VL: not shown
notes: Hybridoma-derived mouse antibody; also called m3D6; mouse 3D6
Take B1: the binding result in [1] is listed as “binds”; in experiment [2], “binds”; in experiment [3] it was “binds”; in experiment [5], “no binding”; in [6] it was “no binding”; in [7] it was “no binding”. Further, the binding result in experiment [8], in experiment [9], in experiment [10], in [11], in experiment [12] and in experiment [13] was “no binding” each time. Moreover, the binding result in experiment [14] is “no binding”. Further, the IC50 in [4] turned out to be 0.409 nM. Also, the Kd in [15] came to 0.46 nM. Also, in experiment [15], the off-rate (koff) worked out at 0.00119 s⁻¹. In addition, in experiment [15], the kon turned out to be 2.58e+06 M⁻¹ s⁻¹.

For the origin of these results see patent publication US20200369755A1 (PROTHENA BIOSCIENCES, published 2020).
